# Laboratory results reported in patent US12365732 (23ANDME, dated 2025).
# T1: hu-CD96 isoform 2 on CHO cells (human, UniProt P40200 22-585)
# T1 construct: also called CHO-CD96 (isoform 2); CD96-CHOs
# T1 sequence: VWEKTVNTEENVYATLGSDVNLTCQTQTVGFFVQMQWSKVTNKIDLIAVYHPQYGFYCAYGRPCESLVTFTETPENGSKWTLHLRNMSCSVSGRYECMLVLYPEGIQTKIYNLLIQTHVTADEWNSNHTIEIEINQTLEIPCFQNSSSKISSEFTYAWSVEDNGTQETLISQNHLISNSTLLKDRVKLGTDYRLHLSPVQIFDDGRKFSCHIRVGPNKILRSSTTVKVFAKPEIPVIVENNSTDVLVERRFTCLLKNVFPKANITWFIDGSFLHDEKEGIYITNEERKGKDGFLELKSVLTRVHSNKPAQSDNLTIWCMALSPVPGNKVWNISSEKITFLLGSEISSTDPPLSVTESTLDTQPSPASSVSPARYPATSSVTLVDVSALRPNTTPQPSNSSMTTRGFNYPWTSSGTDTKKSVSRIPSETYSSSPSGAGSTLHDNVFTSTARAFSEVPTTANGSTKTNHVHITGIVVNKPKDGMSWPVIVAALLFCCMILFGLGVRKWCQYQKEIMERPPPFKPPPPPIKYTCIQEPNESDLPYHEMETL
# T2: cy-CD96 (soluble, extracellular domain) (cynomolgus monkey, UniProt P40200 22-516 (human entry), biotinylated in Octet and blocking ELISA)
# T2 construct: the assays name only cy-CD96; also called biotinylated cy-CD96
# T2 chain: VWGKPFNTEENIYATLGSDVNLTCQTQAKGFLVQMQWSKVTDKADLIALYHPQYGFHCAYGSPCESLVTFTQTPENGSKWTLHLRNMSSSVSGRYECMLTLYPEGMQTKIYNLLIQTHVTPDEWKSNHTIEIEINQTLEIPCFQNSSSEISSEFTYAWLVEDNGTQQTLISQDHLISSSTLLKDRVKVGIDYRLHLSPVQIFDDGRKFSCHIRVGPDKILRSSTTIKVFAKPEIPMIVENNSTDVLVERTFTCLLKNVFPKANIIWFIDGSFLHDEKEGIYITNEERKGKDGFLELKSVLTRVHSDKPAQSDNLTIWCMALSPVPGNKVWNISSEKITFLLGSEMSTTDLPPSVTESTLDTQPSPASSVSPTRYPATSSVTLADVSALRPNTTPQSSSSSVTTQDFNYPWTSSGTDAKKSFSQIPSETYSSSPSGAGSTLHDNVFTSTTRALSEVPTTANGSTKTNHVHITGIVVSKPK
# B1: 9H4, purified hybridoma antibody (antibody, V domains shown)
# VH: EVQLLETGGGLVKSGGSLKLSCAASGFTFSDYYMYWVRQTPEKRLEWVAAISDDGTYTYYPDSVKGRFTISRDNANNYLYLQMSSLKSEDTAIYYCAKAGSYDYFDVWGAGTTVTVSS
# VL: DIVLTQSPASLAVSLGQRAIISCKASQSVTFADTGLMHWYQQKPGQQPKLLIYRASNLEVGVPTRFSGSGSGTDFTLNIHPVEEEDVATYYCQQSREYPWTFGGGTKLEIK
# notes: murine hybridoma IgG
# B2: 7E5, purified hybridoma antibody (antibody, V domains shown)
# VH: QVQLKESGPGLVAPSQSLSIICTVSGFSLTNYGIHWIRQPPGKGLEWLGIIWAGGSTNYNSALMSRLTISKDNSKSQVFLKMNSLQTNDTAIYYCARVSMMGFAYWGQGTLVTVSA
# VL: QAVVTQESALTTSPGETVTLTCRSSTGAVTTSNYANWVQEKPDHLFTGLIGGTNNRAPGVPARFSGSLIGDKAALTITGAQTEDEAIYFCSLWYGSHWVFGGGTKLTVL
# notes: murine hybridoma IgG
# B3: mAb1.v7.2 Fab (Fab, V domains shown)
# VH: EVQLVQSGAEVKKPGASVKVSCKASGFTFTNNWRHWVRQAPGQGLEWIGMIHFNSGITNINEKFKNRVTMTTDTSTSTAYMELRSLRSEDTAVYYCRSDGVYEGYFDYWGQGTLVTVSS
# VL: DIQLTQSPSSLSASVGDRVTITCKASQNVGTAIVWYQQKPGKAPKVLIYSASTRYTGVPSRFSGSGSGTDFTLTISSLQPEDFATYYCQQYSSSPLTFGQGTKVEIK
# notes: also called M34R/P52aF/T97V
# B4: mAb1.v7.70 Fab (Fab, V domains shown)
# VH: EVQLVQSGAEVKKPGASVKVSCKASGFTFTNRWMHWVRQAPGQGLEWIGMIHANSGITNINEKFKNRVTMTTDTSTSTAYMELRSLRSEDTAVYYCRSDGVYEGYFDYWGQGTLVTVSS
# VL: DIQLTQSPSSLSASVGDRVTITCKASQNVGTAIVWYQQKPGKAPKVLIYSASTRYTGVPSRFSGSGSGTDFTLTISSLQPEDFATYYCQQYSSSPLTFGQGTKVEIK
# notes: also called N32R/P52aA/T97V
# B5: mAb1.v7.48 Fab (Fab, V domains shown)
# VH: EVQLVQSGAEVKKPGASVKVSCKASGFTFTNRWMHWVRQAPGQGLEWIGMIHHNSGITNINEKFKNRVTMTTDTSTSTAYMELRSLRSEDTAVYYCRSDGVYEGYFDYWGQGTLVTVSS
# VL: DIQLTQSPSSLSASVGDRVTITCKASQNVGTAIVWYQQKPGKAPKVLIYSASTRYTGVPSRFSGSGSGTDFTLTISSLQPEDFATYYCQQYSSSPLTFGQGTKVEIK
# notes: also called N32R/P52aH/T97V
# B6: mAb1.v7.NGS10 IgG (antibody, V domains shown)
# VH: EVQLVQSGAEVKKPGASVKVSCKASGFTFTNNFMHWVRQAPGQGLEWIGFIHANSGITNINEKFKNRVTMTTDTSTSTAYMELRSLRSEDTAVYYCRSDGIYEGYFDYWGQGTLVTVSS
# VL: DIQLTQSPSSLSASVGDRVTITCKASQNVGTAIVWYQQKPGKAPKVLIYSASTRYTGVPSRFSGSGSGTDFTLTISSLQPEDFATYYCQQYSSSPLTFGQGTKVEIKG
# notes: human IgG1 N297G
# B7: mAb1.v7 IgG (humanized 12F8) (antibody, V domains shown)
# VH: EVQLVQSGAEVKKPGASVKVSCKASGFTFTNNWMHWVRQAPGQGLEWIGMIHPNSGITNINEKFKNRVTMTTDTSTSTAYMELRSLRSEDTAVYYCRSDGTYEGYFDYWGQGTLVTVSS
# VL: DIQLTQSPSSLSASVGDRVTITCKASQNVGTAIVWYQQKPGKAPKVLIYSASTRYTGVPSRFSGSGSGTDFTLTISSLQPEDFATYYCQQYSSSPLTFGQGTKVEIKG
# notes: human IgG1 N297G
# B8: mAb1.v7.9 Fab (Fab, V domains shown)
# VH: EVQLVQSGAEVKKPGASVKVSCKASGFTFTNNWRHWVRQAPGQGLEWIGMIHMNSGITNINEKFKNRVTMTTDTSTSTAYMELRSLRSEDTAVYYCRSDGVYEGYFDYWGQGTLVTVSS
# VL: DIQLTQSPSSLSASVGDRVTITCKASQNVGTAIVWYQQKPGKAPKVLIYSASTRYTGVPSRFSGSGSGTDFTLTISSLQPEDFATYYCQQYSSSPLTFGQGTKVEIK
# notes: also called M34R/P52aM/T97V
# B9: mAb1.v7.16 Fab (Fab, V domains shown)
# VH: EVQLVQSGAEVKKPGASVKVSCKASGFTFTNNWRHWVRQAPGQGLEWIGMIHPNSGITNINEKFKNRVTMTTDTSTSTAYMELRSLRSEDTAVYYCRSDGVYEGYFDYWGQGTLVTVSS
# VL: DIQLTQSPSSLSASVGDRVTITCKASQNVGTAIVWYQQKPGKAPKVLIYSASTRYTGVPSRFSGSGSGTDFTLTISSLQPEDFATYYCQQYSSSPLTFGQGTKVEIK
# notes: also called M34R/T97V
# B10: mAb1.v7.NGS9 IgG (antibody, V domains shown)
# VH: EVQLVQSGAEVKKPGASVKVSCKASGFTFTNNFMHWVRQAPGQGLEWIGMIHANSGITNINEKFKNRVTMTTDTSTSTAYMELRSLRSEDTAVYYCRSDGVYEGYFDYWGQGTLVTVSS
# VL: DIQLTQSPSSLSASVGDRVTITCKASQNVGTAIVWYQQKPGKAPKVLIYSASTRYTGVPSRFSGSGSGTDFTLTISSLQPEDFATYYCQQYSSSPLTFGQGTKVEIKG
# notes: human IgG1 N297G
# B11: 10G1 (clone 10G1.3G8), purified hybridoma antibody (antibody, V domains shown)
# VH: QIQLVQSGPELKKPGETVKISCKASGYPFTTYGMSWVKQAPGKGLKWMGWINTDSGVPTYADDFKGRFAFSLETSANTAYLQINSLKNEDAATYFCARNIYYGWGNFDYWGQGTILTVSS
# VL: DILMTQSPTTLSVTPGETVSLSCRASQDIYRNLHWYQQKSQGTPRLLIKHASDSISGIPSRFTGSGSGTDFTLSINSVKPEDEGIYYCLQGYSMPYTFGGGTKLEIK
# notes: murine hybridoma IgG
# Tests used:
# [1] = molecular target: T1, hu-CD96 isoform 2 on CHO cells; experiment: FACS, Ab 10 nM
# Protocol: Isoform 1 of hu-CD96 (Origene, catalog #RC213845) was transiently expressed in HEK293T cells following standard lipofectamine or Fugene transfection protocol. […] Cells were washed, and binding was detected by incubation with anti-mouse IgG-FITC (Biolegend, catalog #406001) for 20 minutes at 4° C. Cell binding was analyzed by flow cytometry with a CytoFLEX (Beckman Coulter). Binding curves were calculated as a percentage of cells positive for bound antibody.
# Isoform 2 of hu-CD96 (DNA construct: Origene, catalog #RC221005) was expressed on a single-cell-clone-derived CHO stable cell line. Binding of the anti-CD96 antibodies to the CHO cells were determined as described above with isoform 1 of hu-CD96.
# [2] = molecular target: T2, cy-CD96 (soluble, extracellular domain); experiment: BLI (Octet), biotin-CD96 on SA, Fab analyte
# Protocol: The binding affinity of the generated Fab variants of mAb1.v7 for hu-CD96 and cy-CD96 was determined by OCTET (Pall ForteBio) Bio-Layer Interferometry (BLI) binding analysis. The biotinylated hu-CD96 or biotinylated cy-CD96 was diluted to a final concentration 10 µg/mL in experimental buffer (PBS buffer with 0.01% Tween-20) and immobilized on the Streptavidin Capture (SA) biosensors (Pall ForteBio). Three-fold serial dilutions of the mAb1.v7 Fab variants starting at 1 µM as analytes were diluted in the experimental buffer (PBS buffer with 0.01% Tween-20). The biosensors were equilibrated in experimental buffer at 30° C. for ten minutes prior to starting the experiment. The kinetics experiment was performed with the following steps, where the step name, solution and time are listed: Baseline (buffer—60 seconds), Loading (biotinylated antigen—200 seconds), Baseline 2 (buffer—minimum 120 seconds), Association (analyte—200-300 seconds) and Dissociation (buffer—1000 seconds). The resulting BLI signal from analyte association and dissociation from the […] was analyzed using the Octet Data Analysis software (Pall ForteBio). First a reference subtraction was performed on all recorded traces using the reference well (biosensor that underwent same steps as experimental wells but no analyte for the Association step) and then all the traces were aligned to the beginning of the Association step. The entirety of the Association and Dissociation steps were used in a Global fit (minimum of four analyte concentration traces) in a 1:1 binding model to calculate the K_D values for the 16 selected individual mAb1.v7 Fab variants as summarized in Table 9 (below).
# [3] = molecular target: T1, hu-CD96 isoform 2 on CHO cells; experiment: FACS, CD155-Fc-FLAG 10 nM, Ab 4 nM
# Protocol: (§1) CHO cells stably expressing isoform 2 of hu-CD96 (Origene, catalog #RC221005) were incubated with anti-CD96 antibodies for 20 minutes at 4° C. The cells were washed, and then incubated with 10 nM human CD155-Fc-FLAG for 30 minutes at 4° C. Cells were washed, and then human CD155-Fc-FLAG binding was detected by incubation with anti-FLAG-APC (Columbia Biosciences, catalog #D3-1718-1MG) for 20 minutes at 4° C. Cell binding was analyzed by flow cytometry with a CytoFLEX (Beckman Coulter). CD155 binding is represented as median fluorescence intensity (MedFI).
# (§2) As shown in Table 20 (below), the anti-CD96 antibodies, mAb1.v7.NGS8, mAb1.v7.NGS9, mAb1.v7.NGS10, mAb1.v7.NGS11, and h10G1 inhibited soluble hu-CD155 binding to CD96-expressing CHO cells dose-dependently and potently. The antibody NK92.39 (Fuchs et al., 2004; Biolegend catalog #338405) inhibited receptor binding similarly.
# [4] = molecular target: T1, hu-CD96 isoform 2 on CHO cells; experiment: FACS, CD155-Fc-FLAG 10 nM, Ab 0.8 nM
# Protocol: as §1, §2
# [5] = molecular target: T1, hu-CD96 isoform 2 on CHO cells; experiment: FACS, CD155-Fc-FLAG 10 nM, Ab 20 nM
# Protocol: as §1, §2
Binder,% positive [1],Kd [2],also measured
B1,46.1%,–,–
B2,56.1%,–,–
B3,–,39.1 nM,–
B4,–,52.6 nM,–
B5,–,68 nM,–
B6,–,–,CD155-Fc binding (MedFI) [3]: 4940 MedFI; CD155-Fc binding (MedFI) [4]: 23600 MedFI; CD155-Fc binding (MedFI) [5]: 4940 MedFI
B7,44.8%,–,–
B8,–,129 nM,–
B9,–,97.9 nM,–
B10,–,–,CD155-Fc binding (MedFI) [3]: 6100 MedFI; CD155-Fc binding (MedFI) [4]: 32200 MedFI; CD155-Fc binding (MedFI) [5]: 4260 MedFI
B11,39.2%,–,–
